This test deals with T1, 6XHis-tagged ALIX Bro1 protein (residues 1–392) (UniProt Q8WUM4 1-392).
T1 construct: Bro1 domain of ALIX, residues 1-392; also called recombinant ALIX Bro1; recombinant Bro1; source: E. coli, recombinant
T1 sequence (looked up): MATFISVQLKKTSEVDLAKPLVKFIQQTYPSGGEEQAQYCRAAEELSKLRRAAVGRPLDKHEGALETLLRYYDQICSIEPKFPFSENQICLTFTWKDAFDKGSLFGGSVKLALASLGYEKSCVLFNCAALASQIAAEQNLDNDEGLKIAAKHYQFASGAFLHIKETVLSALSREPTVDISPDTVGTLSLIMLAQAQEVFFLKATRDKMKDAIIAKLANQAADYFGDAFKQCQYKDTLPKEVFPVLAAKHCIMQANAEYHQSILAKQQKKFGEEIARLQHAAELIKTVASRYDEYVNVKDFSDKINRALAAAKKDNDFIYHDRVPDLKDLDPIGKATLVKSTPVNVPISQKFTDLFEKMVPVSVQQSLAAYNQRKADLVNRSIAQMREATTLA
Nature of the test: pull-down. The following applies: both partners purified.

B1: peptide representing the C-terminal 20 residues of CHMP4B (peptide, UniProt Q9H444 205-224, looked up)
peptide: KKKEEEDDDMKELENWAGSM
notes: also called CHMP4 peptide; source: synthetic peptide
With B1, the binding result is “binds”.

Source of the values: publication PMC9410543, “Nonlytic cellular release of hepatitis A virus requires dual capsid recruitment of the ESCRT-associated Bro1 domain proteins HD-PTP and ALIX” (PLoS Pathogens, 2022).
